Laboratory results reported in patent EP4722254A1.

Molecular target: Recombinant Human-FGFR2-His protein (human) (UniProt P21802)
Test: ELISA, Human-FGFR2-His coated, anti-human Fc-HRP detection

Recombinant Human-FGFR2-His protein (human), sequence (P21802 other isoform, or with tags, fused parts or gaps limits assumed): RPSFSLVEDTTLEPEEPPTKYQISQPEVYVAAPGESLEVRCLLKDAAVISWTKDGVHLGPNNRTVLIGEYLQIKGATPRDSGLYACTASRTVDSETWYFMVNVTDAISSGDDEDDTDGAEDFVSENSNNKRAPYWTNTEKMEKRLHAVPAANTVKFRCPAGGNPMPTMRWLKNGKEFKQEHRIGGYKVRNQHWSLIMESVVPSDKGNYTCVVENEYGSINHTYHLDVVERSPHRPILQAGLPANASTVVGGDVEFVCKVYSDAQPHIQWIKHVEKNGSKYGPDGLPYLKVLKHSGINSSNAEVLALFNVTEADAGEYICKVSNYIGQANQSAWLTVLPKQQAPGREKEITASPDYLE

EC50: 0.624 nM
B1: anti-FGFR2/PD-1 bispecific antibody c (bispecific antibody, part only; not given: anti-PD-1 constant regions, part only)
heavy, part: EVKLVESGGGLVQPGGSLRLSCAASGFAFSSYDMSWVRQAPGKRLEWVATISGGGRYTYYPDTVKGRFTISRDNAKNSHYLQMNSLRAEDTAVYFCASPYGGYFDVWGQGTLVTVSSGGGGSGGGGSGGGGSQVQLVQSGAEVKKPGSSVKVSCKASGYTFTSYWMHWVRQAPGQGLEWMGAIYPGNSDTDYSGKFKGRVTITADESTSTAYMELSSLRSEDTAVYYCSKFDYWGQGTLVTVSSGGGGSGGGGSGGGGSGGGGSEIVLTQSPATLSLSPGERATLSCRASSSVNYMYWYQQKPGQAPRPWIYLTSNRATGVPARFSGSGSGTDYTLTISSLEPEDFAVYYCQQWSSNPYTFGQGTKLEIKRTV
light, part: EIVLTQSPATLSLSPGERATLSCRASQSISNFLHWYQQKPGQAPRLLIKYASQSISGIPARFSGSGSGTDFTLTISSLEPEDFAVYFCQQSNSWPHTFGQGTKVEIK
